# Reference: patent US20210087281A1 (AGOMAB THERAPEUTICS, published 2021)
# B1: 71G12 chimeric llama-human IgG1 mAb (antibody, V domains shown)
# VH: QVQLQESGGDLVQPGGSLRVSCVVSGFTFSRYYMSWVRQAPGKGLEWVSSIDSYGYSTYYTDSVKGRFTISRDNAKNTLYLQMNSLKPEDTALYYCARAKTTWSYDYWGQGTQVTVSS
# VL: EIVLTQSPSSVTASVGGKVTINCKSSQSVFIASNQKTYLNWYQQRPGQSPRLVISYASTRESGIPDRFSGSGSTTDFTLTISSVQPEDAAVYYCQQAYSHPTFGQGTKVELK
# notes: llama VH on human IgG1 CH1-CH2-CH3, llama VL on human kappa CL
# B2: recombinant mouse HGF (R&D Systems) (ligand, UniProt Q08048 33-728, looked up)
# chain: QKKRRNTLHEFKKSAKTTLTKEDPLLKIKTKKVNSADECANRCIRNRGFTFTCKAFVFDKSRKRCYWYPFNSMSSGVKKGFGHEFDLYENKDYIRNCIIGKGGSYKGTVSITKSGIKCQPWNSMIPHEHSFLPSSYRGKDLQENYCRNPRGEEGGPWCFTSNPEVRYEVCDIPQCSEVECMTCNGESYRGPMDHTESGKTCQRWDQQTPHRHKFLPERYPDKGFDDNYCRNPDGKPRPWCYTLDPDTPWEYCAIKTCAHSAVNETDVPMETTECIQGQGEGYRGTSNTIWNGIPCQRWDSQYPHKHDITPENFKCKDLRENYCRNPDGAESPWCFTTDPNIRVGYCSQIPKCDVSSGQDCYRGNGKNYMGNLSKTRSGLTCSMWDKNMEDLHRHIFWEPDASKLNKNYCRNPDDDAHGPWCYTGNPLIPWDYCPISRCEGDTTPTIVNLDHPVISCAKTKQLRVVNGIPTQTTVGWMVSLKYRNKHICGGSLIKESWVLTARQCFPARNKDLKDYEAWLGIHDVHERGEEKRKQILNISQLVYGPEGSDLVLLKLARPAILDNFVSTIDLPSYGCTIPEKTTCSIYGWGYTGLINADGLLRVAHLYIMGNEKCSQHHQGKVTLNESELCAGAEKIGSGPCEGDYGGPLICEQHKMRMVLGVIVPGRGCAIPNRPGIFVRVAYYAKWIHKVILTYKL
# modifications: biotinylated at the N-terminus using NHS-LC-biotin (in the competition ELISAs only)
# Assays:
# [1] = biological target: T1, native human MET on living cells (human, UniProt P08581 25-1390); test: cell-based or functional assay
# [2] = biological target: T2, native mouse MET on living cells (mouse, UniProt P16056 25-1379); test: cell-based or functional assay
# [3] = biological target: T3, mouse MET-Fc (R&D Systems) (mouse, UniProt P16056 25-929, limits assumed); test: competition ELISA, mMET-Fc in solid phase, competitor 0.3 nM biotinylated mHGF
# T3 construct: bought chimeric protein; also called mMET; not shown: Fc part
# Method: (§1) To investigate along this line, we tested the competition between mAbs and HGF by ELISA. Recombinant human and mouse HGF (R&D Systems) were biotinylated at the N-terminus using NHS-LC-biotin (Thermo Scientific). MET-Fc protein, either human or mouse (R&D Systems), was immobilized in solid phase and then exposed to 0.3 nM biotinylated HGF, either human or mouse, in the presence of increasing concentrations of antibodies (0-120 nM).
# (§2) A MET-Fc chimeric protein (either human or mouse) was immobilized in solid phase and exposed to a fixed concentration of biotinylated HGF (either human or mouse), in the presence of increasing concentrations of antibodies. […] Antibody-HGF competition is expressed as IC₅₀ (the concentration that achieves 50% competition) and IMAX (the maximum % competition reached at saturation).
# [4] = biological target: T1, native human MET on living cells; test: cell-based or functional assay; remark: listed apart in the source
# [5] = biological target: T2, native mouse MET on living cells; test: cell-based or functional assay; remark: listed apart in the source
# [6] = biological target: T4, human MET-Fc (R&D Systems) (human, UniProt P08581 25-932); test: competition ELISA, hMET-Fc in solid phase, competitor 0.3 nM biotinylated hHGF
# T4 construct: extracellular domain; bought chimeric protein; also called hMET; not shown: Fc portion of human IgG1
# Method: as §1, §2
# [7] = biological target: T2, native mouse MET on living cells; test: flow cytometry, MLP29 cells
# Method: (§3) We also analysed whether chimeric anti-MET antibodies bound to native human and mouse MET in living cells. […] Antibody binding to cells was analysed by flow cytometry using phycoerythrin-conjugated anti-human IgG1 antibodies (eBioscience) and a CyAn ADP analyser (Beckman Coulter). As a positive control for human MET binding, we used a commercial mouse anti-human MET antibody (R&D Systems) and phycoerythrin-conjugated anti-mouse IgG1 antibodies (eBioscience).
# (§4) As a positive control for mouse MET binding we used a commercial goat anti-mouse MET antibody (R&D Systems) and phycoerythrin-conjugated anti-goat IgG1 antibodies (eBioscience). […] Consistent with the data obtained in ELISA, maximal binding (EMAX) varied depending on antibody, but was similar in human and mouse cells.
# [8] = biological target: T1, native human MET on living cells; test: cell-based or functional assay; remark: listed apart in the source
# [9] = biological target: T2, native mouse MET on living cells; test: cell-based or functional assay; remark: listed apart in the source
# human MET ECD = biological target: T5, human MET ECD (human, UniProt P08581 25-932); test: ELISA, MET ECD in solid phase, mAb 0-20 nM
# T5 construct: range 1-932; recombinant ECD made by the applicants; the stated range begins at residue 1, so it includes the signal peptide of the entry; also called hMET; hMET ECD
# Method: (§5) Production (by transient transfection of mammalian cells) and purification (by protein A affinity chromatography) of the resulting chimeric llama-human IgG1 molecules was outsourced to U-protein Express. Binding of chimeric mAbs to MET was determined by ELISA using hMET or mMET ECD in solid phase and increasing concentrations of antibodies (0-20 nM) in solution. […] Binding capacity (EMAX) varied from antibody to antibody, possibly due to partial epitope exposure in the immobilized antigen, but was similar in the human and mouse setting.
# mouse MET ECD = biological target: T6, mouse MET ECD (mouse, UniProt P16056 25-931); test: ELISA, MET ECD in solid phase, mAb 0-20 nM
# T6 construct: range 1-931; recombinant ECD made by the applicants; the stated range begins at residue 1; also called mMET; mMET ECD
# Method: as §5
# [10] = biological target: T1, native human MET on living cells; test: cell-based or functional assay; remark: listed apart in the source
# [11] = biological target: T2, native mouse MET on living cells; test: cell-based or functional assay; remark: listed apart in the source
# [12] = biological target: T1, native human MET on living cells; test: flow cytometry, A549 cells
# Method: as §3, §4
# T1 sequence (P08581 25-1390): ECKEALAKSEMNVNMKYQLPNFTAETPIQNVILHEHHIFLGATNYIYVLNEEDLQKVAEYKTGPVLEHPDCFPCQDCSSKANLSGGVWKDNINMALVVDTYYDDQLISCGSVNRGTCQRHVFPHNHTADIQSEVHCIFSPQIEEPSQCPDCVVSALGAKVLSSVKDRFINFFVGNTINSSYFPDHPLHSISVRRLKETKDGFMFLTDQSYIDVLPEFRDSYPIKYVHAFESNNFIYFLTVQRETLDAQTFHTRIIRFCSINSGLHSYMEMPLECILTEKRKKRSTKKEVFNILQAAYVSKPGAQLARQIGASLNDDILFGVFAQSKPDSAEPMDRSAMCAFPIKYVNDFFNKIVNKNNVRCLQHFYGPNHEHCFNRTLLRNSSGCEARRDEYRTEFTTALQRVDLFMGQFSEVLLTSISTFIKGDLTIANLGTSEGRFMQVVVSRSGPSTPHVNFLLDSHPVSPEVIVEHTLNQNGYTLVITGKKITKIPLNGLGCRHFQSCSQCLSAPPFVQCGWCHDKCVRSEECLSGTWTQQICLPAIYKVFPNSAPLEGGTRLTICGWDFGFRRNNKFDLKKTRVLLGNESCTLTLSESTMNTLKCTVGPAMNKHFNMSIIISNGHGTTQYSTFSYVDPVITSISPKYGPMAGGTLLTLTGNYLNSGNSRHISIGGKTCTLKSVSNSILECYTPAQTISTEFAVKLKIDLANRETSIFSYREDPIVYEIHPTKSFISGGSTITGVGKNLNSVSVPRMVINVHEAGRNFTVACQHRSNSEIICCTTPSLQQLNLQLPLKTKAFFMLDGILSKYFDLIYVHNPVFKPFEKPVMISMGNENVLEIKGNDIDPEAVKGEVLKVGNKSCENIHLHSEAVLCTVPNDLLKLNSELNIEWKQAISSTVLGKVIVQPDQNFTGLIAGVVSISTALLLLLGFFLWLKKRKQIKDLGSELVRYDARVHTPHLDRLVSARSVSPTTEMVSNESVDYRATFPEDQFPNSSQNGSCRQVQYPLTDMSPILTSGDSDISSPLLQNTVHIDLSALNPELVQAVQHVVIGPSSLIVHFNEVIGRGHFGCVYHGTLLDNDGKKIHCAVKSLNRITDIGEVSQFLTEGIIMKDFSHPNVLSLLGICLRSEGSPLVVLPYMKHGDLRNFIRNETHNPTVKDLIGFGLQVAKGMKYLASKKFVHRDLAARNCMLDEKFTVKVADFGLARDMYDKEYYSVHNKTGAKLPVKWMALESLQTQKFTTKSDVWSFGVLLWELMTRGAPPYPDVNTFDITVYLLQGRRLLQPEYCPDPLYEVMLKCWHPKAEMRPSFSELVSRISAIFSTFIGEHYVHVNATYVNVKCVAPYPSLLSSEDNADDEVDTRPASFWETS
# T4 sequence (P08581 25-932): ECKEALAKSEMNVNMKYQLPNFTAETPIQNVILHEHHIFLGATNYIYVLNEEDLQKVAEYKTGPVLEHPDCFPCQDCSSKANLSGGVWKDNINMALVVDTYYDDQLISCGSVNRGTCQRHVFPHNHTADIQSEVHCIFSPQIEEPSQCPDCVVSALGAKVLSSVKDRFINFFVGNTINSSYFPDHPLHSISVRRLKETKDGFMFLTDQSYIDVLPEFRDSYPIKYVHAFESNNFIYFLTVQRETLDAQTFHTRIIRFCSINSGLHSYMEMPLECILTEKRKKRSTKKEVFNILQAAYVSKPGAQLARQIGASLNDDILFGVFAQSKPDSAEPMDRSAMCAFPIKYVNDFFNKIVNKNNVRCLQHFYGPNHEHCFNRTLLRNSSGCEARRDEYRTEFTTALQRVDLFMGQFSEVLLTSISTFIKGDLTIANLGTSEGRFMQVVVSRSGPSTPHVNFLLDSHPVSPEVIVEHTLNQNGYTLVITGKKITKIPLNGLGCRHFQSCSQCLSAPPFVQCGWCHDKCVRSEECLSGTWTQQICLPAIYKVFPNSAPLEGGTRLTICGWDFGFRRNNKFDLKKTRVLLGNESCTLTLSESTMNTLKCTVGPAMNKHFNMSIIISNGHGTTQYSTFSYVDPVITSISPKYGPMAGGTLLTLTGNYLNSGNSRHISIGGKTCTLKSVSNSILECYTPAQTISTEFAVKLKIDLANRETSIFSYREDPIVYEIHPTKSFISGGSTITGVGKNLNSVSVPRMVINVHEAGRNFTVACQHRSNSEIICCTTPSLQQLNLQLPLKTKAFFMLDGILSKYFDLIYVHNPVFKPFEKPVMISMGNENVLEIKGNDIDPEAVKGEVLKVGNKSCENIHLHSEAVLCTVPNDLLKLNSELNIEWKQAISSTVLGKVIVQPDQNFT
# T5 sequence (P08581 25-932 limits assumed, form in doubt): as the sequence (P08581 25-932) above
binder,measurement,setting,value
B1,"protection from staurosporine, viability EC50, MCF10A cells",[1],> 32 nM
same,"protection from staurosporine, viability EMAX, MCF10A cells",[1],39.4%
same,"protection from staurosporine, viability EC50, MLP29 cells",[2],> 32 nM
same,"protection from staurosporine, viability EMAX, MLP29 cells",[2],39.7%
same,IC50,[3],4.05 nM
same,IMAX,[3],50.7%
same,"phospho-MET ELISA EC50, A549 cells",[4],2.48 nM
same,"phospho-MET ELISA EMAX (% HGF activity), A549 cells",[4],70.6%
same,"phospho-MET ELISA EC50, MLP29 cells",[5],2.01 nM
same,"phospho-MET ELISA EMAX (% HGF activity), MLP29 cells",[5],75.4%
same,IC50,[6],3.87 nM
same,IMAX,[6],51.4%
same,EC50,[7],2.54 nM
same,EMAX,[7],121 % relative to control
same,"scatter score 0-4, HPAF-II, 0.001 nM",[8],0 score
same,"scatter score 0-4, HPAF-II, 0.004 nM",[8],0 score
same,"scatter score 0-4, HPAF-II, 0.012 nM",[8],0 score
same,"scatter score 0-4, HPAF-II, 0.037 nM",[8],0 score
same,"scatter score 0-4, HPAF-II, 0.111 nM",[8],0 score
same,"scatter score 0-4, HPAF-II, 0.333 nM",[8],1 score
same,"scatter score 0-4, HPAF-II, 1.000 nM",[8],2 score
same,"scatter score 0-4, HPAF-II, 3.000 nM",[8],2 score
same,"scatter score 0-4, HPAF-II, 9.000 nM",[8],3 score
same,"scatter score 0-4, MLP29, 0.001 nM",[9],0 score
same,"scatter score 0-4, MLP29, 0.004 nM",[9],0 score
same,"scatter score 0-4, MLP29, 0.012 nM",[9],0 score
same,"scatter score 0-4, MLP29, 0.037 nM",[9],0 score
same,"scatter score 0-4, MLP29, 0.111 nM",[9],0 score
same,"scatter score 0-4, MLP29, 0.333 nM",[9],1 score
same,"scatter score 0-4, MLP29, 1.000 nM",[9],2 score
same,"scatter score 0-4, MLP29, 3.000 nM",[9],2 score
same,"scatter score 0-4, MLP29, 9.000 nM",[9],3 score
same,EC50,human MET ECD,0.106 nM
same,EMAX (OD450),human MET ECD,3.08 AU
same,EC50,mouse MET ECD,0.127 nM
same,EMAX (OD450),mouse MET ECD,2.97 AU
same,"branches per spheroid, LOC cells, 0.5 nM",[10],7 branches
same,"branches per spheroid, LOC cells, 2.5 nM",[10],15.3 branches
same,"branches per spheroid, LOC cells, 12.5 nM",[10],16 branches
same,"branches per spheroid, MLP29 cells, 0.5 nM",[11],14 branches
same,"branches per spheroid, MLP29 cells, 2.5 nM",[11],14.7 branches
same,"branches per spheroid, MLP29 cells, 12.5 nM",[11],22.7 branches
same,EC50,[12],2.29 nM
same,EMAX,[12],110 % relative to control
B2,"protection from staurosporine, viability EC50, MLP29 cells",[2],5.35 nM
same,"protection from staurosporine, viability EMAX, MLP29 cells",[2],58.6%
same,"phospho-MET ELISA EC50, MLP29 cells",[5],0.23 nM
same,"phospho-MET ELISA EMAX (% HGF activity), MLP29 cells",[5],100%
same,"scatter score 0-4, MLP29, 0.001 nM",[9],0 score
same,"scatter score 0-4, MLP29, 0.004 nM",[9],1 score
same,"scatter score 0-4, MLP29, 0.012 nM",[9],2 score
same,"scatter score 0-4, MLP29, 0.037 nM",[9],3 score
same,"scatter score 0-4, MLP29, 0.111 nM",[9],4 score
same,"scatter score 0-4, MLP29, 0.333 nM",[9],4 score
same,"scatter score 0-4, MLP29, 1.000 nM",[9],4 score
same,"scatter score 0-4, MLP29, 3.000 nM",[9],4 score
same,"scatter score 0-4, MLP29, 9.000 nM",[9],4 score
same,"branches per spheroid, MLP29 cells, 0.5 nM",[11],32.3 branches
same,"branches per spheroid, MLP29 cells, 2.5 nM",[11],43.7 branches
same,"branches per spheroid, MLP29 cells, 12.5 nM",[11],36 branches
